Laboratory results published in the supplement of paper PMC10065799, “High-throughput profiling of sequence recognition by tyrosine kinases and SH2 domains using bacterial peptide display” (eLife, 2023).

Experiments:
[1] = molecular target: Fes (UniProt P07332); experiment: phosphorylation enrichment, bacterial display (enrichment ratio); higher = better substrate or ligand; peptides without Tyr show the background
[2] = system: AncSZ; experiment: as above
[3] = molecular target: EPHB2 (UniProt P29323); experiment: as above
Sequence of EPHB2 (P29323 whole entry, looked up): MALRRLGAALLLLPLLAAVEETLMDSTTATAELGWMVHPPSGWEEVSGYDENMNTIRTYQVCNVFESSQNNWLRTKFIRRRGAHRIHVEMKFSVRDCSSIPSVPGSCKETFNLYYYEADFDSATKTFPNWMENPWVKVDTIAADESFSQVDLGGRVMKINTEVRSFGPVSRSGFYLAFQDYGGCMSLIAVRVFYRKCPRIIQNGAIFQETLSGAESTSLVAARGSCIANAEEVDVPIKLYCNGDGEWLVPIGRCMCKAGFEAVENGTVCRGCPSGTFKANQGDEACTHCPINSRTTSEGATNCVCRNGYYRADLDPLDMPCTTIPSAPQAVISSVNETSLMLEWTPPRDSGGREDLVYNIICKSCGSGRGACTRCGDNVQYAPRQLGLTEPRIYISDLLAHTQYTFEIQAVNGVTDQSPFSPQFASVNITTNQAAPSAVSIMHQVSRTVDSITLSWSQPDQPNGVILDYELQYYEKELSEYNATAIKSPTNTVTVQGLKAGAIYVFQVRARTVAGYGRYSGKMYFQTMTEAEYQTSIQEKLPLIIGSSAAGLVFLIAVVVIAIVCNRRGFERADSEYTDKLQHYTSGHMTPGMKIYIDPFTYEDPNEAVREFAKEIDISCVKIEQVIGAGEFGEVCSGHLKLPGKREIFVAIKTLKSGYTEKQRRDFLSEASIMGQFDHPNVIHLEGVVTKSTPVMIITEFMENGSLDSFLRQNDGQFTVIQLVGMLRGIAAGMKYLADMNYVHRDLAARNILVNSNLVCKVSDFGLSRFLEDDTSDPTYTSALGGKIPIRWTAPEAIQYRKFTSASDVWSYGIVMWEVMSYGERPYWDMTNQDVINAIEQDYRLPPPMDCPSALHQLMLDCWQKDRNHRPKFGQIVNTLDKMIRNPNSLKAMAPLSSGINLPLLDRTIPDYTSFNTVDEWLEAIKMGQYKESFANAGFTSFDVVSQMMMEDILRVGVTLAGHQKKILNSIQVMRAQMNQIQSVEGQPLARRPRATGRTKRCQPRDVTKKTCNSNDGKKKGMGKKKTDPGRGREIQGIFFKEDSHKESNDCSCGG

[4] = molecular target: Fyn (UniProt P06241); experiment: as above
Sequence of Fyn (P06241 whole entry, looked up): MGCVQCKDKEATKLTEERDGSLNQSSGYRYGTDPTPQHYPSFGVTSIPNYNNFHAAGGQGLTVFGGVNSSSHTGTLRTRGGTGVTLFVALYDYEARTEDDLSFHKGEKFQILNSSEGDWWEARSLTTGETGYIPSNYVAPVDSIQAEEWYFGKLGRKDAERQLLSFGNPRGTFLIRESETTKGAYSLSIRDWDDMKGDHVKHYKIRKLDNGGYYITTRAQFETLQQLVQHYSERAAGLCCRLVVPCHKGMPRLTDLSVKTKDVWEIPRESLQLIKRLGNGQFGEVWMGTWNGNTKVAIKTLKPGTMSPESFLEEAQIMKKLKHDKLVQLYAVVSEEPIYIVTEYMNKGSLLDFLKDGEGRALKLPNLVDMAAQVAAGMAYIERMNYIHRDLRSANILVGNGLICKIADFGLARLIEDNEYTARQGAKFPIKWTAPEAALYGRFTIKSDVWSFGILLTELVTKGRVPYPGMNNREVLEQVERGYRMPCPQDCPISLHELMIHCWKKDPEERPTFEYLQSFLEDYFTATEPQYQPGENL

[5] = molecular target: FGFR1 (UniProt P11362); experiment: as above
Sequence of FGFR1 (P11362 whole entry, looked up): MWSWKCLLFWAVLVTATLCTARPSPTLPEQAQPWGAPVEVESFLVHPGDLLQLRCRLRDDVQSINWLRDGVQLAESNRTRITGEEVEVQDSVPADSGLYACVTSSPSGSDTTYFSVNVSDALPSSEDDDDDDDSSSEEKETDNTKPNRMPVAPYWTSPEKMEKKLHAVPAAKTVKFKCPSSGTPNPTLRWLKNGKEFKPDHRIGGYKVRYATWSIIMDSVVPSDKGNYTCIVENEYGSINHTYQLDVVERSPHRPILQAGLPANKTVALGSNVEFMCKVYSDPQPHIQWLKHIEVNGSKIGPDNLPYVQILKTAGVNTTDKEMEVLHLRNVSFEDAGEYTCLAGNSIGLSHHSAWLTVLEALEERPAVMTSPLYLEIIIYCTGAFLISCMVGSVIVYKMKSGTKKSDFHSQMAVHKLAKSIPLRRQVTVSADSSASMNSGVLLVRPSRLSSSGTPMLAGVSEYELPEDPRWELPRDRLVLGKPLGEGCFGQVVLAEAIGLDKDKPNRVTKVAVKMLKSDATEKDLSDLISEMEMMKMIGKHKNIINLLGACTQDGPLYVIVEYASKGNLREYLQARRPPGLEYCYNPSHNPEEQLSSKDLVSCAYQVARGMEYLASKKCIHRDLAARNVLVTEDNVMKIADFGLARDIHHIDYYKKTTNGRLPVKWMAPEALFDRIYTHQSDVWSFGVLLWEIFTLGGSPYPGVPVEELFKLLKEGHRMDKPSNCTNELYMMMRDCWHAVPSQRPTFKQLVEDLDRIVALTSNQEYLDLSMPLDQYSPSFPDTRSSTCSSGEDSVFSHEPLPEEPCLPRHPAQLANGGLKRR

[6] = system: Fer (mouse); experiment: as above
[7] = molecular target: Hck (UniProt P08631); experiment: as above
[8] = molecular target: Jak2 (UniProt O60674); experiment: as above
Sequence of Jak2 (O60674 whole entry, looked up): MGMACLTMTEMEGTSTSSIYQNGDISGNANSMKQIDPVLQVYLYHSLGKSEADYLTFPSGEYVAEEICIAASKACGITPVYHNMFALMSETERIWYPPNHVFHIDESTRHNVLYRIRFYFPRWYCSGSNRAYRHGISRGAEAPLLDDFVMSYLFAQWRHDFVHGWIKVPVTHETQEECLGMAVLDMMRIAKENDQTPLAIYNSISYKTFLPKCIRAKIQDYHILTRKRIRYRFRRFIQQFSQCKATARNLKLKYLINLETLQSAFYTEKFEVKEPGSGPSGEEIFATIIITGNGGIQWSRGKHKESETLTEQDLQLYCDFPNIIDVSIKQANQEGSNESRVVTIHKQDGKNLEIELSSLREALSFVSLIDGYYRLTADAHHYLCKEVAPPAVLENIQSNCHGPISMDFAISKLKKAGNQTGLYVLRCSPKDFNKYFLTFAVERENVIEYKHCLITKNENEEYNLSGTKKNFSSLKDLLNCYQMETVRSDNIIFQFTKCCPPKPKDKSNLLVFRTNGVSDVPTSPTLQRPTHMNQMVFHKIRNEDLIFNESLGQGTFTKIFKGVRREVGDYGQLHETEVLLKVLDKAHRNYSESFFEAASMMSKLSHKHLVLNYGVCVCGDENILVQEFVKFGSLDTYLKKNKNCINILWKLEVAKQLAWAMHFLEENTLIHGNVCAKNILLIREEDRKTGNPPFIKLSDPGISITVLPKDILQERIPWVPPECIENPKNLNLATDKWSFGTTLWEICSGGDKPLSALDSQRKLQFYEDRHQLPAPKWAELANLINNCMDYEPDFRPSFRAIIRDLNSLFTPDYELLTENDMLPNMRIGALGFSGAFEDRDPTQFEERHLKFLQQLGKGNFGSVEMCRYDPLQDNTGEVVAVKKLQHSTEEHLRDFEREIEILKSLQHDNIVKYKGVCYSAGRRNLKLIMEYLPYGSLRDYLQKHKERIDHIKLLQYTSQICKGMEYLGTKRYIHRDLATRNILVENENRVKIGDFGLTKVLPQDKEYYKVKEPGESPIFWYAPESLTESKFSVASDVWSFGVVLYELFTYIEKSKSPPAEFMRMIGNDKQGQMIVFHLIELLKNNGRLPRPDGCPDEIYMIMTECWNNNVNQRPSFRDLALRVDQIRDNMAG

[9] = molecular target: MERTK (UniProt Q12866); experiment: as above
Sequence of MERTK (Q12866 whole entry, looked up): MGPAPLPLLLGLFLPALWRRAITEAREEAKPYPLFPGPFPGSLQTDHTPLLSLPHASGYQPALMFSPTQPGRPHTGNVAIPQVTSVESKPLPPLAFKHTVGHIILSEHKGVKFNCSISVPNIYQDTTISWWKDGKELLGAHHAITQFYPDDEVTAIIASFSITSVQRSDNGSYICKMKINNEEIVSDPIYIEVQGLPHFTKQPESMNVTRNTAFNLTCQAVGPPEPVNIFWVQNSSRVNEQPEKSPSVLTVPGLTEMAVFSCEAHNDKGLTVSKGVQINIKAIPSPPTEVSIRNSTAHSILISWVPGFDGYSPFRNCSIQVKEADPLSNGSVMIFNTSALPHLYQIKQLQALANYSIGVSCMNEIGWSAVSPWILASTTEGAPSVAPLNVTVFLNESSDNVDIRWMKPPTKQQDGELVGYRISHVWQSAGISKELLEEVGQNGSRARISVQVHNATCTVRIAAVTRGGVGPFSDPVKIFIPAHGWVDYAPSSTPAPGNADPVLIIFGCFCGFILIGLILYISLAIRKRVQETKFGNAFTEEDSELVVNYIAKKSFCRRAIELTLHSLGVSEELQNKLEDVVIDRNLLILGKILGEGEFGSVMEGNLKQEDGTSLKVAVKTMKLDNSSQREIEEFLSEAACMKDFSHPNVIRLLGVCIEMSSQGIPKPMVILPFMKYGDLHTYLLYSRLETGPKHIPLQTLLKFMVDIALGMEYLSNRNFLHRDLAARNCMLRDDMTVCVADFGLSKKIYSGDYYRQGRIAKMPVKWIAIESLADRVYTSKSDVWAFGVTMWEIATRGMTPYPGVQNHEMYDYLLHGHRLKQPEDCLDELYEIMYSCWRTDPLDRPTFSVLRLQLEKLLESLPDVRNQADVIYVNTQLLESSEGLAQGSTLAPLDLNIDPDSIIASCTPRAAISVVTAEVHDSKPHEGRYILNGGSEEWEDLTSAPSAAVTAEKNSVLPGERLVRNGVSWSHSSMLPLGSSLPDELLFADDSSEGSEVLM

[10] = molecular target: FGFR3 (UniProt P22607); experiment: as above
[11] = molecular target: EPHB1 (UniProt P54762); experiment: as above
[12] = system: c-Abl (mouse); experiment: as above
[13] = system: c-Src; experiment: as above
[14] = molecular target: Grb2 SH2 (UniProt P62993); experiment: SH2 binding enrichment of the phosphorylated peptide, bacterial display (enrichment ratio); higher = better substrate or ligand; peptides without Tyr show the background
Sequence of Grb2 SH2 (P62993 whole entry, looked up): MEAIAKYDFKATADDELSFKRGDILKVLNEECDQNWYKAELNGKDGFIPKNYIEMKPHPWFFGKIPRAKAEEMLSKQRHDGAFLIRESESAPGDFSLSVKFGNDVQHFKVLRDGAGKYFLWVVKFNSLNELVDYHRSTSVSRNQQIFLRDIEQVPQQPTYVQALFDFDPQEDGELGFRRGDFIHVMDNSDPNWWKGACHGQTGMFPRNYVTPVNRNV

[15] = molecular target: SHP2-C SH2; experiment: as above
[16] = molecular target: c-Src SH2; experiment: as above
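For SH2 binding enrichment of the phosphorylated peptide, bacterial display in this document: peptide library displayed on the E. coli surface as eCPX fusions, selected cells deep-sequenced, score is each peptide's frequency after selection divided by its frequency in the input.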
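For phosphorylation enrichment, bacterial display in this document: 11-residue human phosphosite peptides and single-mutation variants displayed on the E. coli surface, counted by deep sequencing, each peptide's frequency after selection divided by its frequency in the unselected input library; frequency after pTyr selection over input frequency; kinase dosed for 20-30% of maximal phosphorylation in three min.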

| Sequence | phosphorylation enrichment [1] | phosphorylation enrichment [2] | phosphorylation enrichment [3] | phosphorylation enrichment [4] | phosphorylation enrichment [5] | phosphorylation enrichment [6] | phosphorylation enrichment [7] | phosphorylation enrichment [8] | phosphorylation enrichment [9] | phosphorylation enrichment [10] | phosphorylation enrichment [11] | phosphorylation enrichment [12] | phosphorylation enrichment [13] | SH2 binding enrichment [14] | SH2 binding enrichment [15] | SH2 binding enrichment [16] |
| --- | --- | --- | --- | --- | --- | --- | --- | --- | --- | --- | --- | --- | --- | --- | --- | --- |
| EHTILYSNNST [KANSL1_Y223_T221I] | 0.662 | 0.715 | 0.454 | 0.437 | 0.461 | 0.732 | 0.43 | 0.488 | 0.5 | 0.468 | 0.456 | 0.581 | 0.547 | 0.845 | 0.71 | 0.691 |
| YSNKLYYQLEQ [PDPR_Y109] | 1.09 | 1.43 | 2.11 | 2.08 | 8.28 | 0.81 | 2.27 | 1.76 | 6.24 | 7.22 | 3.14 | 0.82 | 3.28 | 0.826 | 0.957 | 1.12 |
| AQQPIYIRVEG [NLRP7_Y318_V319I] | 1.18 | 1.12 | 1.2 | 0.525 | 0.652 | 0.588 | 0.733 | 0.955 | 0.641 | 0.702 | 1.3 | 0.725 | 0.793 | 1.03 | 0.614 | 0.591 |
| RRETPYGGGGG [FUS_Y526_R524T] | 0.68 | 0.769 | 0.62 | 0.718 | 0.957 | 0.438 | 0.604 | 0.551 | 0.721 | 1.07 | 0.568 | 0.487 | 0.628 | 0.685 | 0.54 | 0.477 |
| PSELFYSKIGP [SMG1_Y2254_YF] | 1.2 | 1.21 | 2.08 | 3.97 | 5.34 | 10.4 | 10.6 | 2.1 | 15.5 | 3.84 | 2.31 | 2.46 | 5.2 | 1.03 | 2.31 | 4.64 |
| ATHRSYDSDNP [MMUT_Y146_G145S] | 0.777 | 1.13 | 0.459 | 0.47 | 0.593 | 0.422 | 0.476 | 0.543 | 0.57 | 0.511 | 0.346 | 0.518 | 0.447 | 1.07 | 0.509 | 0.651 |
| LARDMHDKEYY [MET_Y1230_Y1230H] | 0.678 | 0.763 | 0.507 | 0.445 | 0.46 | 0.426 | 0.385 | 0.628 | 0.404 | 0.589 | 0.469 | 0.395 | 0.425 | 0.625 | 0.962 | 0.395 |
| NHYKICNLCAE [PTEN_Y68_Y68C] | 0.691 | 0.663 | 0.395 | 0.4 | 0.488 | 0.384 | 0.378 | 0.613 | 0.45 | 0.519 | 0.376 | 0.571 | 0.372 | 1.12 | 0.956 | 0.97 |
| LIDGYYRLTAD [JAK2_Y373] | 2.59 | 2.46 | 2.08 | 1.71 | 11.5 | 1.54 | 1.87 | 10.4 | 0.961 | 5.24 | 1.88 | 1 | 0.899 | 0.72 | 9.03 | 4.65 |
| HYVYYYSYLLK [PTEN_Y178_R173H] | 2.12 | 2.09 | 1.37 | 1.29 | 6.85 | 0.888 | 3.19 | 2.42 | 5.74 | 5.92 | 2.74 | 2.31 | 3.08 | 0.865 | 0.702 | 0.425 |
| NQLNDYIFSFD [RARS1_Y516_R512Q] | 1.27 | 1.42 | 0.549 | 0.743 | 0.946 | 0.461 | 0.546 | 1.08 | 0.46 | 0.807 | 0.525 | 0.733 | 0.598 | 0.928 | 0.632 | 0.553 |
| IPGRFYETGSI [PAX2_Y73_L69P_YF] | 0.723 | 0.733 | 0.858 | 0.492 | 0.635 | 0.357 | 0.517 | 0.662 | 0.415 | 0.614 | 0.441 | 0.552 | 0.549 | 0.841 | 0.803 | 1.11 |
| VPTSKYRGGGG [HBA1_Y141_L137P] | 0.457 | 0.392 | 0.341 | 0.452 | 0.392 | 0.327 | 0.355 | 0.572 | 0.392 | 0.349 | 0.284 | 0.446 | 0.363 | 0.929 | 0.597 | 0.558 |
| VGGRIYTDDGL [PKLR_Y218_I219T] | 0.921 | 0.768 | 0.592 | 0.427 | 0.427 | 0.463 | 0.426 | 0.595 | 0.37 | 0.612 | 0.412 | 0.629 | 0.306 | 0.653 | 0.887 | 0.453 |
| ERCAQYKKDGA [ALDOA_Y138] | 0.574 | 0.612 | 0.487 | 0.394 | 0.438 | 0.341 | 0.396 | 0.622 | 0.368 | 0.484 | 0.409 | 0.496 | 0.391 | 1.06 | 0.623 | 0.635 |
| IINENYDFLKV [NUP98_Y1664_G1669V_YF] | 1.01 | 1.05 | 0.92 | 0.512 | 0.862 | 2.45 | 2.17 | 0.97 | 0.838 | 0.779 | 0.794 | 0.668 | 0.655 | 0.588 | 0.958 | 0.588 |
| VVHSSYDEIEG [SEC24A_Y263] | 1.12 | 1.04 | 0.549 | 0.498 | 0.493 | 0.492 | 0.475 | 0.892 | 0.429 | 0.648 | 0.51 | 0.713 | 0.442 | 1.03 | 0.87 | 36.8 |
